Data on 167 variants can be found in the RNAGym collection of RNA variant scans (doi:10.7554/elife.90254).

To fix the notation:
B1: LINE1-full (parent)
chain: UACGUAGGUGGUUUUCCCCUGAUAGUGCUAAGGGGGCCUGGAAGUUUGGACUGGGCAGAGCUCAACACAGCGUGGCAAAGUGGCUGUGGCUAGACUGCCUCUCUGGAUUCCUCGUCACUCAGCAGGGCAUCUCUGAGAGAAAUGCC

In this series the parent is B1. The series can be described thus: self-cleavage, relative activity (ratio to wild type); higher = more cleavage; in vitro, sequencing; the parent is a self-cleaving ribozyme.
Consider C56A U96C, for which the self-cleavage was determined as 0.05.
Then G58U U87C, with 0.03.
Then A57C U130A, with 0.03; and A57C A136G, with 0.05; and A57G A138G, with 1.12.
Turning to A59G A65U, the self-cleavage is 0.08.
Take C56A A121G: the self-cleavage worked out at 0.03.
Regarding G55U U115C, the self-cleavage amounted to 0.4.
As to G55U U115A, the self-cleavage was found to be 0.14.
Then A59U A79C, with 1.23; and C56A U100C, with 0.1.
Then A59G A129U, with 0.19; and A59U A107G, with 1.96; and A59U A121U, with 0.79.
In the case of C56U A141G, the self-cleavage was determined as 0.14.
Then A57G U112C, with 0.68; and A57U A107U, with 0.02.
For the variant A57U A107G, the self-cleavage amounted to 0.14.
Then A57G U81A, with 1.16; and A57G U81C, with 0.89; and A57U C110A, with 0.19.
Take A57U C110U: the self-cleavage was 0.05.
Take A59U U85A: the self-cleavage worked out at 0.1.
Then A59U U85C, with 0.16.
A57U A94C: the self-cleavage amounted to 0.1.
Consider C56A U104C, for which the self-cleavage was 0.1.
For A57G U109C, the self-cleavage stood at 0.49.
Then A57G U87C, with 0.11; and A57G U87G, with 0.14.
For the variant G58A G144A, the self-cleavage came out at 0.04.
Then A57U A117C, with 0.28; and A57U A117G, with 0.09; and A57U A117U, with 0.13.
Then A59G A92C, with 0.14; and A59G A92U, with 0.1.
Then A57C U119A, with 0.06; and A57U G83A, with 0.03; and A59G G80A, with 0.08.
In the case of A59U A78U, the self-cleavage was found to be 1.43.
Then A59U A78G, with 0.68; and A57G C66U, with 0.05.
Then A57C A69U, with 0.08; and G58U A124C, with 0.03; and G58U A124G, with 0.01.
Regarding A57G A107U, the self-cleavage was 0.92.
In the case of A57G G83C, the self-cleavage is 0.17.
Then G58A A140G, with 0.04; and A57U A67U, with 0.02; and A57U C61U, with 0.03.
As for A57U A142G, the self-cleavage amounted to 0.12.
Consider A57U A142U, for which the self-cleavage stood at 0.08.
Then A59C U73A, with 1.45.
Then A57G G105A, with 0.48.
Then C56U A77G, with 0.16; and A57G U108A, with 0.8.
Take A59G C76U: the self-cleavage is 0.12.
Then G58A U109A, with 0.04; and A57G G106A, with 1.04; and G58C G72U, with 0.02.
Turning to G55U A121G, the self-cleavage stood at 0.37.
Then A57U U115C, with 0.18; and A57G C84U, with 0.11.
Turning to A57C A138G, the self-cleavage was found to be 0.22.
Then A59G G114U, with 0.07.
Then G58A U134C, with 0.01; and A59C C146U, with 1.23.
Regarding A57G G139U, the self-cleavage was 0.48.
A57G G139A: the self-cleavage was determined as 0.75.
Then A59U U73A, with 0.94; and A59G A138G, with 0.1.
Then A59C A138U, with 1.62; and C56A U73C, with 0.05; and A57G C120U, with 1.54.
A59U C128U: the self-cleavage turned out to be 1.02.
With A57G U104C, the self-cleavage is 1.11.
On to A57G U102A, for which the self-cleavage stood at 0.82.
Then A57G U102G, with 0.19; and C56G U91C, with 0.05; and A57G A141G, with 0.72.
Then A57U A138U, with 0.12; and A57U A64C, with 0.06.
Take A59G G60C: the self-cleavage was found to be 0.07.
On to A59U, for which the self-cleavage amounted to 0.8.
Then A59C, with 0.96; and A59G, with 0.09; and G58A U119C, with 0.06.
Consider G58A A77G, for which the self-cleavage was determined as 0.06.
G58A C71U: the self-cleavage amounted to 0.03.
Then A57U A77U, with 0.05.
Then A59G U62C, with 0.1.
Then A59G U62A, with 0.06; and C56U A59U, with 0.11; and A59G A94C, with 0.29.
On to A57G U62A, for which the self-cleavage turned out to be 0.05.
Then A57G U62C, with 0.08; and A59U A94G, with 1.71; and C56U U87C, with 0.11.
Then A57G A140U, with 1.05.
In the case of G58A U62C, the self-cleavage came out at 0.08.
As to A59G A67U, the self-cleavage worked out at 0.06.
Then A59G A69U, with 0.06.
Then A59G C113A, with 0.07.
Take A59G C113U: the self-cleavage amounted to 0.06.
Then A59U U87A, with 0.07.
A59G C90U: the self-cleavage was 0.03.
Then A57G C101U, with 1.13; and G55U A117G, with 0.3; and G55U A117U, with 0.46.
Then A57G U73A, with 0.37; and A59G A136U, with 0.09.
For A59G C71U, the self-cleavage stood at 0.04.
Then C56U C71U, with 0.07.
Then G58U A140G, with 0.05; and A59G U115A, with 0.11.
Then A59G U115C, with 0.07; and A59G A78U, with 0.1.
Regarding A59G C103U, the self-cleavage came out at 0.06.
Then G58U U100G, with 0.2; and G58U U100C, with 0.09; and A57G C113U, with 0.29.
Then A59C A67G, with 0.
Regarding A57G U100A, the self-cleavage is 0.3.
Then A59C A117G, with 2.7; and A59U G126A, with 0.59; and A59G U81G, with 0.09.
Then G60A A107G, with 0.03; and C56G A67G, with 0.
Then A59G A79U, with 0.07.
With A59G U100A, the self-cleavage was 0.07.
Then A59G U100C, with 0.16; and A59G U109A, with 0.09.
As for A57C G72U, the self-cleavage was determined as 0.03.
Then A57G U91A, with 0.34.
Then A57G U91C, with 0.4; and A59U A64U, with 0.62; and A57U A136C, with 0.1.
In the case of C56G A92U, the self-cleavage came to 0.04.
Then C56U A67G, with 0.07.
Then G58A U81C, with 0.05; and G58A A142G, with 0; and C56U A117C, with 0.5.
As for A57G U115C, the self-cleavage was 1.3.
On to A57G U115A, for which the self-cleavage turned out to be 0.81.
Turning to C56U G86A, the self-cleavage turned out to be 0.04.
Then A59G C61A, with 0.03; and G55U G144A, with 0.43.
Then A57U C99U, with 0.04; and A57C U104A, with 0.18.
With A57G C128A, the self-cleavage was determined as 0.12.
Then A57G C128U, with 0.79.
Take A57U U73A: the self-cleavage is 0.06.
Then A57U U73C, with 0.1; and A59U A77G, with 1.01; and A59U A136U, with 0.87.
A59G U134C: the self-cleavage came to 0.15.
Then A59U C123U, with 0.8.
G60A A121U: the self-cleavage is 0.1.
Then A57U C98G, with 0.06.
Then G58U A136G, with 0.01.
For the variant A57G U119C, the self-cleavage stood at 1.4.
Consider A57C U102C, for which the self-cleavage was determined as 0.1.
Then A59U A124G, with 0.75; and A59U A124U, with 0.68; and G58A A121G, with 0.13.
Then C56A A141G, with 0.07; and A59G A117C, with 0.2.
Then A59G A117G, with 0.18.
